Data reported in the Human Domainome abundance scans (Beltran et al. 2025).
± gives the uncertainty stated by the source.

B1: CD2-associated protein, residues 109 to 169; numbered along this chain, Q9Y5K6 (parent)
chain: KKRQCKVLFEYIPQNEDELELKVGDIIDINEEVEEGWWSGTLNNKLGLFPSNFVKELEVTD

Variants of: B1
Assay: abundance fitness (aPCA) (normalised: wild type 0, dead -1); higher = more abundant; growth selection in yeast, the domain comes from the species named
Settings: Homo sapiens

T60D and K1D are within error of each other in abundance fitness: 0.183 ± 0.28 for the first, 0.195 ± 0.38 for the second.

W37K and N43H are within error of each other in abundance fitness: -0.681 ± 0.48 for the first, -0.014 ± 0.21 for the second.

E35K and N30S are within error of each other in abundance fitness: -0.352 ± 0.17 for the first, -0.11 ± 0.1 for the second.

First: L19W
Second: W37M
The abundance fitness of the first is lower: -1.18 ± 0.42 for the first, -0.267 ± 0.12 for the second.

F9P and N30A are within error of each other in abundance fitness: -0.449 ± 0.14 for the first, -0.305 ± 0.47 for the second.

Compared with W38V, R3L is higher in abundance fitness: -0.46 ± 0.098 for the first, -0.178 ± 0.086 for the second.

W38M and L19M are within error of each other in abundance fitness: -0.223 ± 0.11 for the first, -0.319 ± 0.29 for the second.

E35V and L46P are within error of each other in abundance fitness: -0.15 ± 0.098 for the first, -0.196 ± 0.074 for the second.

I27M and D17Y are within error of each other in abundance fitness: -0.716 ± 0.24 for the first, -0.192 ± 0.38 for the second.

E16I and V7D are within error of each other in abundance fitness: -0.552 ± 0.48 for the first, -0.748 ± 0.39 for the second.

Going from E10Q to F53E, the abundance fitness falls from -0.146 ± 0.15 to -0.894 ± 0.45.

Compared with S51T, L57N is lower in abundance fitness: -0.047 ± 0.11 for the first, -0.69 ± 0.3 for the second.

Y11G and D25V are within error of each other in abundance fitness: -0.855 ± 0.14 for the first, -0.733 ± 0.2 for the second.

Going from I27S to V7R, the abundance fitness rises from -0.641 ± 0.2 to -0.193 ± 0.17.

S39Q and F9W are within error of each other in abundance fitness: -0.217 ± 0.097 for the first, -0.108 ± 0.15 for the second.

I29G and P50G are within error of each other in abundance fitness: -0.31 ± 0.24 for the first, -0.697 ± 0.17 for the second.

First: E20G
Second: E16S
The abundance fitness of the first is lower: -0.369 ± 0.19 for the first, 0.053 ± 0.14 for the second.

E31P and N43F are within error of each other in abundance fitness: -0.855 ± 0.46 for the first, -0.137 ± 0.27 for the second.

Compared with T41G, R3T is higher in abundance fitness: -0.517 ± 0.15 for the first, -0.109 ± 0.093 for the second.

Compared with K6I, G40A is lower in abundance fitness: 0.309 ± 0.054 for the first, -0.747 ± 0.47 for the second.

E18D and E32C are within error of each other in abundance fitness: -0.738 ± 0.49 for the first, -0.274 ± 0.3 for the second.

Compared with I29E, K55A is higher in abundance fitness: -0.78 ± 0.36 for the first, -0.01 ± 0.087 for the second.

Going from N43R to L8H, the abundance fitness falls from 0.061 ± 0.073 to -0.401 ± 0.33.

Compared with L46W, F53G is lower in abundance fitness: 0.013 ± 0.079 for the first, -0.48 ± 0.17 for the second.

E16K and E20I are within error of each other in abundance fitness: -0.434 ± 0.24 for the first, -0.502 ± 0.34 for the second.

Going from Y11F to F9I, the abundance fitness rises from -0.767 ± 0.17 to 0.131 ± 0.3.

Compared with L8I, F49D is lower in abundance fitness: 0.118 ± 0.15 for the first, -0.815 ± 0.4 for the second.

S51C and E31A are within error of each other in abundance fitness: -0.311 ± 0.16 for the first, -0.052 ± 0.1 for the second.

Going from V23F to T41R, the abundance fitness rises from -0.687 ± 0.33 to -0.171 ± 0.12.

L8N and E18A are within error of each other in abundance fitness: -0.417 ± 0.32 for the first, -0.783 ± 0.27 for the second.

First: N30C
Second: I26G
The abundance fitness of the first is higher: -0.256 ± 0.42 for the first, -1.03 ± 0.25 for the second.

Going from N43V to K55T, the abundance fitness rises from -0.679 ± 0.21 to -0.163 ± 0.11.

E58I and V59L are within error of each other in abundance fitness: -0.23 ± 0.26 for the first, 0.013 ± 0.072 for the second.

Compared with L46G, E20A is higher in abundance fitness: -0.303 ± 0.076 for the first, -0.015 ± 0.18 for the second.

F9G and E35N are within error of each other in abundance fitness: -0.294 ± 0.11 for the first, -0.12 ± 0.26 for the second.

Going from K22Q to T60L, the abundance fitness rises from -0.406 ± 0.19 to 0.01 ± 0.14.

Going from F9R to P50L, the abundance fitness falls from 0.18 ± 0.075 to -0.665 ± 0.17.

N44P and D61K are within error of each other in abundance fitness: -0.356 ± 0.37 for the first, -0.582 ± 0.35 for the second.

I29Q and V23A are within error of each other in abundance fitness: -0.823 ± 0.27 for the first, -0.595 ± 0.44 for the second.

L21F and F49K are within error of each other in abundance fitness: -0.826 ± 0.4 for the first, -0.524 ± 0.3 for the second.

Going from E18T to L21G, the abundance fitness rises from -0.838 ± 0.29 to -0.348 ± 0.16.

T60E and L48I are within error of each other in abundance fitness: 0.019 ± 0.13 for the first, -0.022 ± 0.13 for the second.

V59A and L42I are within error of each other in abundance fitness: 0.001 ± 0.2 for the first, -0.242 ± 0.23 for the second.

Going from W38I to N15F, the abundance fitness falls from -0.057 ± 0.15 to -0.448 ± 0.15.

S51Q and K1Y are within error of each other in abundance fitness: -0.307 ± 0.15 for the first, -0.172 ± 0.28 for the second.

P13M and P13K are within error of each other in abundance fitness: -0.812 ± 0.38 for the first, -0.233 ± 0.25 for the second.

K1Q and E35M are within error of each other in abundance fitness: -0.316 ± 0.19 for the first, -0.169 ± 0.25 for the second.

F53L and N43M are within error of each other in abundance fitness: -0.157 ± 0.093 for the first, -0.144 ± 0.17 for the second.

First: E20R
Second: I27Q
The abundance fitness of the first is higher: -0.125 ± 0.17 for the first, -0.541 ± 0.19 for the second.

First: I29S
Second: N15H
The abundance fitness of the first is lower: -0.737 ± 0.22 for the first, -0.148 ± 0.16 for the second.

Compared with Y11M, E31K is higher in abundance fitness: -0.897 ± 0.45 for the first, 0.109 ± 0.12 for the second.

Compared with Q4Y, I27A is lower in abundance fitness: 0.503 ± 0.19 for the first, -0.608 ± 0.18 for the second.

F53P and I26T are within error of each other in abundance fitness: -0.525 ± 0.2 for the first, -0.495 ± 0.13 for the second.

L42A and D25C are within error of each other in abundance fitness: -0.391 ± 0.12 for the first, -0.649 ± 0.27 for the second.

I29V and D17V are within error of each other in abundance fitness: 0.085 ± 0.35 for the first, 0.051 ± 0.14 for the second.

E18Q and R3M are within error of each other in abundance fitness: -0.395 ± 0.23 for the first, -0.228 ± 0.15 for the second.

Going from E56F to E34V, the abundance fitness rises from -0.406 ± 0.21 to -0.05 ± 0.13.

W38C and D61P are within error of each other in abundance fitness: -0.385 ± 0.18 for the first, 0.04 ± 0.32 for the second.

G47K and R3E are within error of each other in abundance fitness: -0.773 ± 0.23 for the first, -0.401 ± 0.41 for the second.

Compared with P50V, G36N is higher in abundance fitness: -1.03 ± 0.41 for the first, -0.004 ± 0.085 for the second.

N15M and D25K are within error of each other in abundance fitness: -0.614 ± 0.36 for the first, -0.106 ± 0.3 for the second.

Going from Y11E to D25A, the abundance fitness rises from -0.73 ± 0.21 to -0.339 ± 0.15.

K2P and G36Q are within error of each other in abundance fitness: -0.293 ± 0.28 for the first, -0.457 ± 0.26 for the second.

G36E and D61E are within error of each other in abundance fitness: 0.041 ± 0.23 for the first, 0.283 ± 0.26 for the second.

Q14C and L42F are within error of each other in abundance fitness: -0.304 ± 0.24 for the first, -0.616 ± 0.23 for the second.

Going from E58V to S39G, the abundance fitness falls from 0.078 ± 0.14 to -0.459 ± 0.11.

Going from C5L to E32G, the abundance fitness rises from -0.445 ± 0.072 to -0.188 ± 0.17.

V59I and L57V are within error of each other in abundance fitness: -0.087 ± 0.13 for the first, -0.239 ± 0.13 for the second.

K1T and N15T are within error of each other in abundance fitness: 0.113 ± 0.27 for the first, -0.097 ± 0.1 for the second.

D25E and W37D are within error of each other in abundance fitness: -0.066 ± 0.19 for the first, -0.387 ± 0.4 for the second.

Compared with E34N, F49G is lower in abundance fitness: -0.337 ± 0.44 for the first, -1.06 ± 0.27 for the second.

L42T and E20W are within error of each other in abundance fitness: -0.131 ± 0.13 for the first, 0.012 ± 0.15 for the second.

C5I and Y11D are within error of each other in abundance fitness: -0.656 ± 0.11 for the first, -0.446 ± 0.36 for the second.

First: G47S
Second: F9Q
The abundance fitness of the first is lower: -1.05 ± 0.26 for the first, 0.083 ± 0.12 for the second.

Going from K55Q to E56H, the abundance fitness falls from 0.064 ± 0.096 to -0.666 ± 0.23.

Going from I29K to F9A, the abundance fitness rises from -0.63 ± 0.26 to 0.026 ± 0.11.

First: E58L
Second: I29T
The abundance fitness of the first is higher: -0.062 ± 0.081 for the first, -0.543 ± 0.19 for the second.

K2T and D17K are within error of each other in abundance fitness: -0.423 ± 0.3 for the first, -0.583 ± 0.45 for the second.

Q4E and C5Q are within error of each other in abundance fitness: -0.539 ± 0.45 for the first, -0.024 ± 0.1 for the second.

Going from K6S to V23H, the abundance fitness falls from -0.084 ± 0.046 to -0.677 ± 0.38.

Going from R3F to G47M, the abundance fitness falls from -0.451 ± 0.1 to -1.21 ± 0.4.

First: K6H
Second: P13E
The abundance fitness of the first is higher: -0.02 ± 0.077 for the first, -0.747 ± 0.39 for the second.

N52Q and E31N are within error of each other in abundance fitness: -0.255 ± 0.11 for the first, -0.016 ± 0.22 for the second.

With T60K the abundance fitness was -0.006 ± 0.39.
